From the supplement of paper PMC5998384

Experiments:
HeLa Kyoto [1] = experiment: solubility change mitosis vs G1/S (difference of NP-40 vs SDS log2 ratios) (log2 ratio difference); higher = more soluble in mitosis
HeLa Kyoto [2] = experiment: thermal stability score vs G1/S (z-score of summed log2 fold changes over temperatures); higher = more thermally stable than in G1/S
HeLa Kyoto [3] = experiment: melting temperature (median over replicates), in situ; higher = more thermally stable
HeLa Kyoto [4] = experiment: solubility in G1/S (NP-40 vs SDS abundance) (log2 ratio); higher = more soluble; conditions: cell cycle stage: G1/S
[5] = cell cycle stage: early G1 (4.5 h after nocodazole release)
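Wherever melting temperature (median over replicates), in situ is given: HeLa Kyoto cells synchronized by double thymidine or nocodazole block, proteins quantified by TMT10plex mass spectrometry, three independent biological replicates.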
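Wherever solubility change mitosis vs G1/S (difference of NP-40 vs SDS log2 ratios) is given: synchronized HeLa Kyoto cells (double thymidine block for G1/S, nocodazole release for mitosis), protein amounts in NP-40 versus SDS lysates quantified by mass spectrometry, three biological replicates.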
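Wherever solubility in G1/S (NP-40 vs SDS abundance) is given: HeLa Kyoto cells arrested at G1/S by double thymidine block, proteins quantified by TMT10plex mass spectrometry in mild NP-40 versus SDS extracts, three biological replicates.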
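Wherever thermal stability score vs G1/S (z-score of summed log2 fold changes over temperatures) is given: synchronized HeLa Kyoto cells, proteins quantified by TMT10plex mass spectrometry, three biological replicates, mitosis taken 0.5 h after nocodazole release, G1/S directly after double thymidine block.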

Row | Sequence | solubility change mitosis (log2) (HeLa Kyoto [1]) | thermal stability score (HeLa Kyoto [2]; [5]) | thermal stability score (HeLa Kyoto [2]; cell cycle stage: mitosis) | melting temperature (HeLa Kyoto [3]; cell cycle stage: G1/S) | melting temperature (HeLa Kyoto [3]; cell cycle stage: mitosis) | solubility in G1/S (log2) (HeLa Kyoto [4])
1 | MAPVLSKDSADIESILALNPRTQTHATLCSTSAKKLDKKHWKRNPDKNCFNCEKLENNFDDIKHTTLGERGALREAMRCLKCADAPCQKSCPTNLDIKSFITSIANKNYYGAAKMIFSDNPLGLTCGMVCPTSDLCVGGCNLYATEEGPINIGGLQQFATEVFKAMSIPQIRNPSLPPPEKMSEAYSAKIALFGAGPASISCASFLARLGYSDITIFEKQEYVGGLSTSEIPQFRLPYDVVNFEIELMKDLGVKIICGKSLSVNEMTLSTLKEKGYKAAFIGIGLPEPNKDAIFQGLTQDQGFYTSKDFLPLVAKGSKAGMCACHSPLPSIRGVVIVLGAGDTAFDCATSALRCGARRVFIVFRKGFVNIRAVPEEMELAKEEKCEFLPFLSPRKVIVKGGRIVAMQFVRTEQDETGKWNEDEDQMVHLKADVVISAFGSVLSDPKVKEALSPIKFNRWGLPEVDPETMQTSEAWVFAGGDVVGLANTTVESVNDGKQASWYIHKYVQSQYGASVSAKPELPLFYTPIDLVDISVEMAGLKFINPFGLASATPATSTSMIRRAFEAGWGFALTKTFSLDKDIVTNVSPRIIRGTTSGPMYGPGQSSFLNIELISEKTAAYWCQSVTELKADFPDNIVIASIMCSYNKNDWTELAKKSEDSGADALELNLSCPHGMGERGMGLACGQDPELVRNICRWVRQAVQIPFFAKLTPNVTDIVSIARAAKEGGANGVTATNTVSGLMGLKSDGTPWPAVGIAKRTTYGGVSGTAIRPIALRAVTSIARALPGFPILATGGIDSAESGLQFLHSGASVLQVCSAIQNQDFTVIEDYCTGLKALLYLKSIEELQDWDGQSPATVSHQKGKPVPRIAELMDKKLPSFGPYLEQRKKIIAENKIRLKEQNVAFSPLKRNCFIPKRPIPTIKDVIGKALQYLGTFGELSNVEQVVAMIDEEMCINCGKCYMTCNDSGYQAIQFDPETHLPTITDTCTGCTLCLSVCPIVDCIKMVSRTTPYEPKRGVPLSVNPVC [DPYD] | 0.02 | -1.59 | -1.63 | 54 °C | 53.5 °C | -0.116
2 | MAPWTLWRCCQRVVGWVPVLFITFVVVWSYYAYVVELCVFTIFGNEENGKTVVYLVAFHLFFVMFVWSYWMTIFTSPASPSKEFYLSNSEKERYEKEFSQERQQEILRRAARALPIYTTSASKTIRYCEKCQLIKPDRAHHCSACDSCILKMDHHCPWVNNCVGFSNYKFFLLFLLYSLLYCLFVAATVLEYFIKFWTNELTDTRAKFHVLFLFFVSAMFFISVLSLFSYHCWLVGKNRTTIESFRAPTFSYGPDGNGFSLGCSKNWRQVFGDEKKYWLLPIFSSLGDGCSFPTRLVGMDPEQASVTNQNEYARSSGSNQPFPIKPLSESKNRLLDSESQWLENGAEEGIVKSGTNNHVTVAIEN [ZDHHC20] | -0.0867 | -0.885 | -1.86 | 55.1 °C | 58.2 °C | -0.00639
3 | MAQADIALIGLAVMGQNLILNMNDHGFVVCAFNRTVSKVDDFLANEAKGTKVVGAQSLKEMVSKLKKPRRIILLVKAGQAVDDFIEKLVPLLDTGDIIIDGGNSEYRDTTRRCRDLKAKGILFVGSGVSGGEEGARYGPSLMPGGNKEAWPHIKTIFQGIAAKVGTGEPCCDWVGDEGAGHFVKMVHNGIEYGDMQLICEAYHLMKDVLGMAQDEMAQAFEDWNKTELDSFLIEITANILKFQDTDGKHLLPKIRDSAGQKGTGKWTAISALEYGVPVTLIGEAVFARCLSSLKDERIQASKKLKGPQKFQFDGDKKSFLEDIRKALYASKIISYAQGFMLLRQAATEFGWTLNYGGIALMWRGGCIIRSVFLGKIKDAFDRNPELQNLLLDDFFKSAVENCQDSWRRAVSTGVQAGIPMPCFTTALSFYDGYRHEMLPASLIQAQRDYFGAHTYELLAKPGQFIHTNWTGHGGTVSSSSYNA [PGD] | -0.184 | 1.53 | 0.62 | 54.4 °C | 54.4 °C | 0.123
4 | MAQEVSEYLSQNPRVAAWVEALRCDGETDKHWRHRRDFLLRNAGDLAPAGGAASASTDEAADAESGTRNRQLQQLISFSMAWANHVFLGCRYPQKVMDKILSMAEGIKVTDAPTYTTRDELVAKVKKRGISSSNEGVEEPSKKRVIEGKNSSAVEQDHAKTSAKTERASAQQENSSTCIGSAIKSESGNSARSSGISSQNSSTSDGDRSVSSQSSSSVSSQVTTAGSGKASEAEAPDKHGSASFVSLLKSSVNSHMTQSTDSRQQSGSPKKSALEGSSASASQSSSEIEVPLLGSSGSSEVELPLLSSKPSSETASSGLTSKTSSEASVSSSVAKNSSSSGTSLLTPKSSSSTNTSLLTSKSTSQVAASLLASKSSSQTSGSLVSKSTSLASVSQLASKSSSQTSTSQLPSKSTSQSSESSVKFSCKLTNEDVKQKQPFFNRLYKTVAWKLVAVGGFSPNVNHGELLNAAIEALKATLDVFFVPLKELADLPQNKSSQESIVCELRCKSVYLGTGCGKSKENAKAVASREALKLFLKKKVVVKICKRKYRGSEIEDLVLLDEESRPVNLPPALKHPQELL [CDKN2AIP] | -0.0367 | 1.13 | 1.43 | 50.2 °C | 50.8 °C | -0.0572
5 | MAQFGGQKNPPWATQFTATAVSQPAALGVQQPSLLGASPTIYTQQTALAAAGLTTQTPANYQLTQTAALQQQAAAAAAALQQQYSQPQQALYSVQQQLQQPQQTLLTQPAVALPTSLSLSTPQPTAQITVSYPTPRSSQQQTQPQKQRVFTGVVTKLHDTFGFVDEDVFFQLSAVKGKTPQVGDRVLVEATYNPNMPFKWNAQRIQTLPNQNQSQTQPLLKTPPAVLQPIAPQTTFGVQTQPQPQSLLQAQISAASITPLLQTQPQPLLQQPQQKAGLLQPPVRIVSQPQPARRLDPPSRFSGRNDRGDQVPNRKDDRSRERERERRRSRERSPQRKRSRERSPRRERERSPRRVRRVVPRYTVQFSKFSLDCPSCDMMELRRRYQNLYIPSDFFDAQFTWVDAFPLSRPFQLGNYCNFYVMHREVESLEKNMAILDPPDADHLYSAKVMLMASPSMEDLYHKSCALAEDPQELRDGFQHPARLVKFLVGMKGKDEAMAIGGHWSPSLDGPDPEKDPSVLIKTAIRCCKALTGIDLSVCTQWYRFAEIRYHRPEETHKGRTVPAHVETVVLFFPDVWHCLPTRSEWETLSRGYKQQLVEKLQGERKEADGEQDEEEKDDGEAKEISTPTHWSKLDPKTMKVNDLRKELESRALSSKGLKSQLIARLTKQLKVEEQKEEQKELEKSEKEEDEDDDRKSEDDKEEEERKRQEEIERQRRERRYILPDEPAIIVHPNWAAKSGKFDCSIMSLSVLLDYRLEDNKEHSFEVSLFAELFNEMLQRDFGVRIYKSLLSLPEKEDKKEKDKKSKKDERKDKKEERDDETDEPKPKRRKSGDDKDKKEDRDERKKEDKRKDDSKDDDETEEDNNQDEYDPMEAEEAEDEEDDRDEEEMTKRDDKRDINRYCKERPSKDKEKEKTQMITINRDLLMAFVYFDQSHCGYLLEKDLEEILYTLGLHLSRAQVKKLLNKVVLRESCFYRKLTDTSKDEENHEESESLQEDMLGNRLLLPTPTVKQESKDVEENVGLIVYNGAMVDVGSLLQKLEKSEKVRAEVEQKLQLLEEKTDEDEKTILNLENSNKSLSGELREVKKDLSQLQENLKISENMNLQFENQMNKTIRNLSTVMDEIHTVLKKDNVKNEDKDQKSKENGASV [CCAR1] | 0.0916 | 0.304 | 1.74 | 50.9 °C | 50.8 °C | -0.232
6 | MAQHFSLAACDVVGFDLDHTLCRYNLPESAPLIYNSFAQFLVKEKGYDKELLNVTPEDWDFCCKGLALDLEDGNFLKLANNGTVLRASHGTKMMTPEVLAEAYGKKEWKHFLSDTGMACRSGKYYFYDNYFDLPGALLCARVVDYLTKLNNGQKTFDFWKDIVAAIQHNYKMSAFKENCGIYFPEIKRDPGRYLHSCPESVKKWLRQLKNAGKILLLITSSHSDYCRLLCEYILGNDFTDLFDIVITNALKPGFFSHLPSQRPFRTLENDEEQEALPSLDKPGWYSQGNAVHLYELLKKMTGKPEPKVVYFGDSMHSDIFPARHYSNWETVLILEELRGDEGTRSQRPEESEPLEKKGKYEGPKAKPLNTSSKKWGSFFIDSVLGLENTEDSLVYTWSCKRISTYSTIAIPSIEAIAELPLDYKFTRFSSSNSKTAGYYPNPPLVLSSDETLISK [NT5DC1] | -0.212 | 0.00809 | -0.565 | 55.5 °C | 55.7 °C | 0.0982
7 | MAQLGAVVAVASSFFCASLFSAVHKIEEGHIGVYYRGGALLTSTSGPGFHLMLPFITSYKSVQTTLQTDEVKNVPCGTSGGVMIYFDRIEVVNFLVPNAVYDIVKNYTADYDKALIFNKIHHELNQFCSVHTLQEVYIELFDQIDENLKLALQQDLTSMAPGLVIQAVRVTKPNIPEAIRRNYELMESEKTKLLIAAQKQKVVEKEAETERKKALIEAEKVAQVAEITYGQKVMEKETEKKISEIEDAAFLAREKAKADAECYTAMKIAEANKLKLTPEYLQLMKYKAIASNSKIYFGKDIPNMFMDSAGSVSKQFEGLADKLSFGLEDEPLETATKEN [ERLIN2] | -0.0221 | 2.26 | 1.92 | 52.7 °C | 53.2 °C | 0.0653
8 | MAQRGGARRPRGDRERLGSRLRALRPGREPRQSEPPAQRGPPPSGRPPARSTASGHDRPTRGAAAGARRPRMKKKTRRRSTRSEELTRSEELTLSEEATWSEEATQSEEATQGEEMNRSQEVTRDEESTRSEEVTREEMAAAGLTVTVTHSNEKHDLHVTSQQGSSEPVVQDLAQVVEEVIGVPQSFQKLIFKGKSLKEMETPLSALGIQDGCRVMLIGKKNSPQEEVELKKLKHLEKSVEKIADQLEELNKELTGIQQGFLPKDLQAEALCKLDRRVKATIEQFMKILEEIDTLILPENFKDSRLKRKGLVKKVQAFLAECDTVEQNICQETERLQSTNFALAE [BAG1] | 0.0327 | 0.492 | -2.14 | 54.3 °C | 53.7 °C | 0.0346
9 | MAQRHSDSSLEEKLLGHRFHSELRLDAGGNPASGLPMVRGSPRVRDDAAFQPQVPAPPQPRPPGHEEPWPIVLSTESPAALKLGTQQLIPKSLAVASKAKTPARHQSFGAAVLSREAARRDPKLLPAPSFSLDDMDVDKDPGGMLRRNLRNQSYRAAMKGLGKPGGQGDAIQLSPKLQALAEEPSQPHTRSPAKNKKTLGRKRGHKGSFKDDPQLYQEIQERGLNTSQESDDDILDESSSPEGTQKVDATIVVKSYRPAQVTWSQLPEVVELGILDQLSTEERKRQEAMFEILTSEFSYQHSLSILVEEFLQSKELRATVTQMEHHHLFSNILDVLGASQRFFEDLEQRHKAQVLVEDISDILEEHAEKHFHPYIAYCSNEVYQQRTLQKLISSNAAFREALREIERRPACGGLPMLSFLILPMQRVTRLPLLMDTLCLKTQGHSERYKAASRALKAISKLVRQCNEGAHRMERMEQMYTLHTQLDFSKVKSLPLISASRWLLKRGELFLVEETGLFRKIASRPTCYLFLFNDVLVVTKKKSEESYMVQDYAQMNHIQVEKIEPSELPLPGGGNRSSSVPHPFQVTLLRNSEGRQEQLLLSSDSASDRARWIVALTHSERQWQGLSSKGDLPQVEITKAFFAKQADEVTLQQADVVLVLQQEDGWLYGERLRDGETGWFPEDFARFITSRVAVEGNVRRMERLRVETDV [ARHGEF16] | -0.0697 | 0.0138 | 0.41 | 49.4 °C | 49.5 °C | -0.0605
10 | MAQRMTTQLLLLLVWVAVVGEAQTRIAWARTELLNVCMNAKHHKEKPGPEDKLHEQCRPWRKNACCSTNTSQEAHKDVSYLYRFNWNHCGEMAPACKRHFIQDTCLYECSPNLGPWIQQVDQSWRKERVLNVPLCKEDCEQWWEDCRTSYTCKSNWHKGWNWTSGFNKCAVGAACQPFHFYFPTPTVLCNEIWTHSYKVSNYSRGSGRCIQMWFDPAQGNPNEEVARFYAAAMSGAGPWAAWPFLLSLALMLLWLLS [FOLR1] | 0.0281 | -1.06 | -1.43 | 58.8 °C | – | -0.325
